# Experimental data as given in the DeepSol protein solubility set.
# Experiment: soluble on expression in E. coli; label from the status in PepcDB or PDB records
row,Sequence,soluble on expression in E. coli
1,MNTFTACVERGENWWVAQLVEDPGVIVQARRLDQIQEEIRDALALFPKLTDSPETASVHLDLVGEIEQKAQATRDQLAAIRECEAHELANMSQHARRLQAAGVLRDSMQIASGSQAARS,not soluble
2,MNTIVVAQLQRQFQDYIVSLYQQGFLDNQFSELRKLQDEGTPDFVAEVVSLFFDDCSKLINTMSISLERPDNVDFKQVDSGVHQLKGSSSSLCFVLSVGARRVKNVCISFKECCDVQNREGYSSNSHTNCDNDIWHRCLRCLQQVDYEYKMLKTKLQDLFNVSFKLCENLLVLLLEKQILQAGGTIPQVDIN,soluble
3,MNTKYNKEFLLYLAGFVDGDGSIIAQIEPNQSYKFKHRLKLTFKVTQKTQRRWFLDKLVDEIGVGYVSDSGSVSNYILSEIKPLHNFLTQLQPFLKLKQKQANLVLKIIEQLPSAKESPDKFLEVCTWVDQIAALNDSKTRKTTSETVRAVLD,soluble
4,MNVCFFPRLKEFILNQDWNDPKSQLQQCCLTLRTEGKEPDIPLYKTLQTVGPSHARTYTVAVYFKGERIGCGKGPSIQQAEMGAAMDALEKYNFPQMAHQKRFIERKYRQELKEMRWEREHQEREPEEAEDIKK,soluble
5,MNVILFDGICNLCNGAVTFVVKRDRKGLFRFVSLQSETGKSLLKRYAVESTNKTLYYFRNNRCYSKSTAILYILKDLGGFWQCLYPLILIPAKLRDAIYLLVSKYRYRIFGKADSCIKPFGFSSEESKRSDLEHHHHHH,not soluble
6,MNVNKPTTEKKLIDLNNDIIHNFDVSIVMSFYKRYTEFRKVLPHNAPYLQRNGIEVIIVLDDPDEKSELLMLLQNYPFINWKLIINERKHAPRNHASVLNVGLKHATKKYILQIDPEVEFLTDIIWQMRDAIEKYPMHYILAMMAYVPYEQELTENNIKELDFIPWGNLMVERNHLYKLHGYDETFITWGGEDNNMRARLDMSGIKKFILPEAKTIHREKNYDPNERSKRINKHSISDWRKMNYPSEAIANKDIWGSEFNKVIYDWQDNQYAKDLCYTYLQQFIGFEIRHPAAFRKRHKKIVLCQAYNEEKLIEGFLTNMANYFDGIILLDDESTDRTWDLAIHDKIILKVKKKRSGFNDLENRNILLDLSAFFQSEWFCFMDIDERFDERFTNFSEFENNKEIHVVSFRGVYLWNDEQSYKGDIPNSNKGILTVYRMFRPIGHTHINTHKKLHFIATPYFTNTWQSNILFKDYGSMKENDRIRKYERYIQEDQQKDMSSGYDYLLNSENLYQLDKIEEYLEHHHHHH,not soluble
7,MNVVVERKNVRNVRIQVLADGKVRVVAPPDFDVDSFISKHADWIKKKRAEIESLAEEIKGKERMLLLNGKFYHLVKDSGFEIKEGEEVGVVKYYSLRNLKRNLASILREELKRNVSFYSRLLGINYGRIFIKMQKTKWASCSSKGNLSFNLASLALPEKLREYIVVHELVHLLEPKHSRLFWETVGFYYPEYEEAERELKKYWIFVERNEVWRMLRALK,soluble
8,MNWHPAACKISAKGGYLRVIIDASNVAHSRKNDEEKPCIENILSAAEELEKLGYEPVIIADASLRHEIDDKEQFRKLLEEGKFQQVPSGTSADHFILKMAEEEDAKILSNDVFRDYKDEFQDINSRRIPYTFREDKILIGTSGKPKKVKNILQKICNEALREFERKRIDAYKVKRGKKLSGIAIAKEAIDRISRSQEEGLEPRLEGIFMKLPLFERFMSMVEEVERTSNYIIFVLVHPKDYRDAVKYAGNIAVTVGDRLKLEHAPLVAVRNDLFLKPGTFELNIMYSEDVMEEAPYNVNITINDHDYSFVKKNSRNIASTLAARIGSWRFPIVSVKPSMLLEKPGEFEVVLEKGGNDLEHHHHHH,soluble
9,MNYAEICIIKRDGKREDFSISKIKNAVSKAFSATGINDEQQLIADITMNVIGQFASPTITVEEIQDLVEKELMKVRPEVAKKYIIYREWRNTERDKKTQMKHVMDGIVAIDKNDVNLSNANMSSHTPAGQMMTFASEVTKDYTYKYLLPKRFAEAHQLGDIHIHDLDYYPTKTTTCIQYDMDDLFERGFRTKNGSIRTPQSIQSYATLATIIFQTNQNEQHGGQAIPAFDFFMAKGVSKSFRKHLASFISFYVQMNKGEEIEEKAIRTVIAEHLSSIKASELERETLRMALTALQINIDKEHLNQIIEKAFVQTQKDTHQAMEGFIHNLNTMHSRGGNQVVFSSINYGTDTSAEGRMVIEELLKATVEGLGTRGEVPVFPIQIFKIKNGVSYTEADYEKAMANFDAAMEGKLKFEAPNFDLFLKACHTTAKALFPNFMFLDAPFNQNEKWDANDPQRYRYELATMGCRTRVFENVAGEKSSLGRGNLSFTTLNMPRLAIEARIKAENMTEDGHNKDAVERKAKEIFIESIHETATLIAEQLYERYQYQRTALARQFPFMMGNDVWKGGAALNPNEQVGDVLRSGTLGIGFLGGHNAMVALYGEGHGHSQKAWDTLYEAVLEINKVADEYKAKYNLNYSVLATPAEGLSGRFTRMDRRKYGKIKGVTDNDYYVNSFHVDVKEPISIVEKIKREAPFHAITRGGHITYVELDGEAQKNVRAIAKIVKVMFDEGIGYGSINHPVDTCHNCGYKGVIYDKCPVCQSENILRMRRITGYLTGDLSSWNSAKRAEEKDRVKHG,not soluble
10,MNYDAKQPPANLADSIQQKETVQALYDLLDKNMADFDASLAGMDKAETADLKEVSDTREIYDFIRYHYGEFGQREAELLLRMENPLNFIVENWPCHNLETLAMNYLADKTIKEPNKKEMPQSGHDTKDAEKPSILKQIKTNQGQIKANRQETRQQSITAERPRDGEAR,not soluble
11,MNYEGKTKIVKVTGDYALLEFKDDITAGDGLKHDVLTGKGSICAETTAILMKYLSEKGIKTHLVEYIPPRTLKVIPLKMFPLEVVVRLKKAGSFVRRYGGAEGEDLPVPLVEFFIKDDERHDPMVCVDHLEILGIATKKQAEKMKEAAVKITLALKEFFERANFELWDIKYEFGLDKDGNVVLGDEISPDTFRLRKKGEIFDKDVYRRDLGDPLKKYREVLELCRSLNSQ,soluble
12,MNYKLTLHPGSNPVEEFTSIPHGVTSLDLSLNNLYSISTVELIQAFANTPASVTSLNLSGNSLGFKNSDELVQILAAIPANVTSLNLSGNFLSYKSSDELVKTLAAIPFTITVLDLGWNDFSSKSSSEFKQAFSNLPASITSLNLRGNDLGIKSSDELIQILAAIPANVNSLNLRGNNLASKNCAELAKFLASIPASVTSLDLSANLLGLKSYAELAYIFSSIPNHVVSLNLCLNCLHGPSLENLKLLKDSLKHLQTVYLDYDIVKNMSKEQCKALGAAFPNIQKIILVDKNGKEIHPSHSIPISNLIRELSGKADVPSLLNQCLIFAQKHQTNIEDLNIPDELRESIQTCKPLLEHHHHHH,soluble
13,MNYLERLVESWPVEQCSAAVVTSDEVTTAGDGNIRYELASVTKLLSTYAVLIAVEEGAFALDTPCGPEGATVRHLLAHASGVGFRSTDACKAPEQRRIYSSYGFELLADVIAHEADMPFAQYLDEAVCQPIGMTHTQLWGSAGHESYSTVNDLVLFAREILQPSLIAQETLVQACTVQFPELHGIVPGYGMYKPCPWGLGFEIKGEKNPHWTAAVMPHTTVGHFGQAGTYLWVDRESQRAMVALTNRSFGDWAKPLWAETNAGVWEHLDQLNL,not soluble
14,MNYYMHHIGDYKSDASYLSLQEHGIYFLLLSHYYATEKPIPADKTHTYRIAYARTKKEKSAVDFVLDTFFSLQEDGWHNKRCDEEIAAYKEGDAWHEHKEANKNGQNTRTRRHRKERSRLFAELKDHQVTPEWNMPIKELRLLHKKTCHAPVTAVTPPVTPVTPVTPVTPVTPTQEESFTGPSSSLRSEERLIRAENETSIKELRQWNAKTNAKTGNAPVTAVTAKPLTINPLTIISSSLCSEESLVFAEDGNATGSTGKPKRSPHGSRLPDD,not soluble
15,MPADRVAFPPTLIGIELDPRQGLSKQLYEILRRQILDGRLSSGMRLPASRDLAKSLAISRNSVMRAFDQLYAEGFIEGRVGDGTYVAQLAGRHAALQRNAPGKLSTNLPTGLHTGLCTGLSTFAVENTQNLLNQVIHNPALQRVEKHHLNEPPDDRPKAFRVGVPAFDLFPFALWGKLYASFWRKPNLDQLGYGAAAGEWRLRELVAAYLRSSRGLGCTAEQIVITSGAQHAISLCAQLLVTPGEGVAVENPGYRAAGHAFALAGARLQGVAVDSEGMRCADLEQTDCRLAYVTPSHQYPTGVVMSLARRLELLAWAEKNQSWIVEDDYDGEYRYSGSPLAPLAALDQNGRVLYVGTFGKIVFPALRLGYLVLPEHLVRPFSQRKAVDMRHTEIGVQAVMAQFIAQGHFQRHIRRMRRAALSRRDALLAGWPDNVPGCAAMPKVVAGLHVMVKVDSVAREQALIAKARSVGVEMSPLSGYWLSDSDEPVDNRAGLVLGFAAVPEPAIADALNRLRMVWSE,not soluble
16,MPAHRSDPTSSVIELNDVVFCWPGASSPTLDIAHLQIARGEHLFVKGPSGCGKSTLLSLLTGINTATQGVVSLLGSDLSRLSASQRDRFRADHIGYIFQQFNLLPYLSVLDNVTLPCHFSALRKQQVDGPLSHKAQSLLERLHLPSALLNKPVTELSIGQQQRVAAARALMGEPQLIIADEPTSALDYDNREAFIALLREEAERVGSTLVFVSHDPTLEKLFERSVHLPTLNRAGGWQ,not soluble
17,MPANGGRGVGEGESPVSFFERLKAGLQKTKEALIGQVNTVMSVFRKIDDDLFDELEEALIRGDVGVATSAKLVEELRREARQKGLKNGDELLPLLKELVAERLGSGAAPLRLNEGGLTVILVVGVNGVGKTTTIGKLARHLREDRGLKVVLAAADTFRAAAMDQLKVWGERAGAEVVTGPEGADPAAVAFDGVKAARASGADVLIVDTAGRLHNKAHLMAELGKIARVLGREVPGAPHETLLVLDATTGQNAIQQTRLFKETVPVTGIALTKLDGTAKGGVVVAIADTEQVPVKFIGVGERLDDLQPFDPRQFVEALFSE,soluble
18,MPAPEAPTSTLPPERPLTNLQQQIQQLVSRQPNLTAGLYFFNLDSGASLNVGGDQVFPAASTIKFPILVAFFKAVDEGRVTLQERLTMRPDLIAPEAGTLQYQKPNSQYAALEVAELMITISDNTATNMIIDRLGGAAELNQQFQEWGLENTVINNPLPDMKGTNTTSPRDLATLMLKIGQGEILSPRSRDRLLDIMRRTVTNTLLPAGLGKGATIAHKTGDIGIVVGDAGMVDMPNGQRYVAAMMVKRPYNDPRGSELIRQVSRMVYQAFEKLSPPEQKLISEEDLNSAVDHHHHHH,soluble
19,MPAPLTFARLTQVDPNLITAHMRDPRLAIHMPLMPDSWSDAQTVSFVQSKEACWDRDGLGHWAFLHQDRYVGWGGFQREGEEWDFGLVLCPAHFGLGLPIARKALDFAHADPRIPFVTFLLPPSRQHLGALRRLGAQPLGETDHAGHRFLKFRLDTA,not soluble
20,MPASVTHVIFDFDGLLVDTESAYTEANMELLRKYGHVFTMDLKRRQMGKRHDESIRWLINELKIGDLVTPEEYSRQYDELLIEMFKRSPAMPGAEKLVRHLLHTGVPVALCTGSCSRTFPTKLDNHKDWVNMIKLQVLSGDDPEVKHGKPHPDPFLVTMKRFPQVPESADKVLVFEDSYNGVLSALDAGMQCVMVPERSIFDPDSDPEFKNRVTVILNSLEQFKPEDFGLPPY,not soluble
21,MPAYKYNRVFLIVMDSVGIGEAPDAADFNDEGAHTLGHIAEHMNGLHMPNMAKLGLGLIEDIKGVEKTEHPLAYYGKLQEASNGKDTMTGHWEIMGLYIDKPFKVFPEGFPDELLQELEKRSGRKIIGNKPASGTAILDELGQEHMETGALIVYTSADSVLQIAAHEEVVPLEELYRICETARELTLDPKYMVGRIIARPFVGEPGQFKRTPNRHDYALKPFDRTVMNELKDCGLDVISIGKISDIYDGEGITSSRRTVSNMDGMDKVIDTLGEDFTGLSFANLVDFDALFGHRRDPEGYGRALEEFDARLPEVFGKMREDDLLIITADHGNDPIHHGTDHTREYVPILAYSKKHKKAQMLPLADTFADIGATIADNFQTNKPKYGKSFLSLLQ,not soluble
